Measurements from the supplement of paper PMC10598134.
± gives the standard deviation.

Assay: collision cross section of modified peptide (TIMS, N2, iRT-aligned); higher = larger / more extended gas-phase ion
Summary of the method: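 Synthetic peptide pools (~100 fmol/µL in 2% acetonitrile/0.1% formic acid, iRT standard spiked 1:40) were separated on a 120-min nanoflow C18 gradient at 60 °C. They were analysed on a timsTOF Pro/HT (dda-PASEF, nitrogen, ~2.4 mbar) and identified with MaxQuant. 1/K0 was calibrated with three reference ions and aligned run-wise to the median iRT peptide deviation. Collision cross section came from the Mason-Schamp equation, averaging 1–3 technical replicates of the most abundant feature per charge state.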

[1] = charge state: 2, modification: Glutarylation
[2] = charge state: 3, modification: Glutarylation
[3] = charge state: 2, modification: hydroxyisobutyryl
[4] = charge state: 3, modification: hydroxyisobutyryl
[5] = charge state: 2, modification: Nitro (Y)
[6] = charge state: 2, modification: Dimethyl (K)
[7] = charge state: 3, modification: Dimethyl (K)
[8] = charge state: 2, modification: Biotin
[9] = charge state: 3, modification: Biotin
[10] = charge state: 2, modification: Methyl (K)
[11] = charge state: 3, modification: Methyl (K)
[12] = charge state: 3, modification: Trimethyl (K)
[13] = charge state: 2, modification: Hydroxyproline
[14] = charge state: 2, modification: HexNAc (ST)
[15] = charge state: 2, modification: Malonyl
[16] = charge state: 3, modification: Malonyl
[17] = charge state: 2, modification: Citrullination (R)
[18] = charge state: 2, modification: Crotonyl
[19] = charge state: 3, modification: Crotonyl
[20] = charge state: 3, modification: GlyGly (K)
[21] = charge state: 2, modification: Butyryl
[22] = charge state: 3, modification: Butyryl
[23] = charge state: 2, modification: GlyGly (K)
[24] = charge state: 2, modification: Succinyl
[25] = charge state: 2, modification: Phospho (Y)
[26] = charge state: 3, modification: HexNAc (ST)
[27] = charge state: 3, modification: Hydroxyproline
[28] = charge state: 3, modification: Nitro (Y)

For “LLIVSTTPYSEKDTK [_LLIVSTTPYSEK(Gluratylation)DTK_]”, the collision cross section [1] was 462.31 ± 1.5 Å² and the collision cross section [2] was 493.7 ± 1.3 Å².

With “DSSPTTNSKLSALQR [_DSSPTTNSK(hydroxyisobutyryl)LSALQR_]” the collision cross section [3] was 437.4 ± 0.29 Å² and the collision cross section [4] was 502.1 ± 2.1 Å².

Sequence LVFDEYLK [_LVFDEY(Nitro (Y))LK_] has a collision cross section [5] of 355.63 ± 0.17 Å².

With “GTVPDDAVEALADSLGKK [_GTVPDDAVEALADSLGK(Dimethyl (K))K_]” the collision cross section [6] was 485.51 ± 1.7 Å² and the collision cross section [7] was 525.76 Å².

With “AAQASDLEKIHLDEK [_AAQASDLEK(Acetyl (K))IHLDEK_]” the collision cross section (charge state: 2, modification: Acetyl (K)) was 454.7 ± 2.5 Å² and the collision cross section (charge state: 3, modification: Acetyl (K)) was 495.59 ± 1.3 Å².

In the case of “ANEKTESSSAQQVAVSR [_ANEK(Gluratylation)TESSSAQQVAVSR_]”, the collision cross section [1] is reported as 449.31 ± 1.1 Å² and the collision cross section [2] is reported as 546.17 ± 2 Å².

GETASKLQSEISR [_GETASK(Biotin)LQSEISR_] gave a collision cross section [8] of 422.42 ± 2 Å² and a collision cross section [9] of 475.24 ± 0.34 Å².

In the case of “LLFSNTAAQKLR [_LLFSNTAAQK(Methyl (K))LR_]”, the collision cross section [10] is reported as 416.21 ± 1.5 Å² and the collision cross section [11] is reported as 479.76 ± 3.4 Å².

“DAIHFYNKSLAEHR [_DAIHFYNK(Trimethyl (K))SLAEHR_]” gave a collision cross section [12] of 498.17 ± 1.1 Å².

“GDAGEPGRPGSPGK [_GDAGEPGRPGSP(Hydroxyproline)GK_]” gave a collision cross section [13] of 357.84 ± 0.8 Å².

Work on “VFIGNLNTLVVKKK [_VFIGNLNTLVVK(Trimethyl (K))KK_]” yielded a collision cross section [12] of 488.61 ± 1.1 Å².

Sequence GPPGAKGNK [_GPP(Hydroxyproline)GAKGNK_] has a collision cross section [13] of 311.98 ± 0.24 Å².

Sequence “GSAPPGPVPEGSIR [_GS(HexNAc (ST))APPGPVPEGSIR_]” has a collision cross section [14] of 399.5 ± 0.63 Å².

“ASEALLKQLK [_ASEALLK(Gluratylation)QLK_]” gave a collision cross section [1] of 377.97 ± 0.1 Å².

“YEQEHAAIQDKLFQVAK [_YEQEHAAIQDK(Dimethyl (K))LFQVAK_]” gave a collision cross section [7] of 556.37 ± 0.79 Å².

Work on “LLIVSTTPYSEKDTK [_LLIVSTTPYSEK(Malonyl)DTK_]” yielded a collision cross section [15] of 454.81 ± 0.99 Å² and a collision cross section [16] of 468.47 ± 1.2 Å².

Work on “STGLELETPSLVPVKK [_STGLELETPSLVPVK(Gluratylation)K_]” yielded a collision cross section [1] of 457.67 ± 1.1 Å² and a collision cross section [2] of 527.31 ± 1.8 Å².

With LEQVEKELLR [_LEQVEK(Dimethyl (K))ELLR_] the collision cross section [6] was 388.36 ± 0.25 Å² and the collision cross section [7] was 444.88 ± 2.1 Å².

Work on “AAQASDLEKIHLDEK [_AAQASDLEK(Biotin)IHLDEK_]” yielded a collision cross section [9] of 515.52 Å².

Sequence “LGILPVGRGK [_LGILPVGR(Citrullination (R))GK_]” has a collision cross section [17] of 340.52 ± 0.26 Å².

“VNIGQGSHPQKVK [_VNIGQGSHPQK(Crotonyl)VK_]” showed a collision cross section [18] of 430.6 ± 0.84 Å² and a collision cross section [19] of 487.14 ± 1.3 Å².

With “SQAGASELGPFSDPR [_SQAGASELGPFS(HexNAc (ST))DPR_]” the collision cross section [14] was 425.39 ± 1.3 Å².

Sequence SGFGKFER [_SGFGK(Propionyl)FER_] has a collision cross section (charge state: 2, modification: Propionyl) of 336.62 ± 0.34 Å².

In the case of “YEQEHAAIQDKLFQVAK [_YEQEHAAIQDK(GlyGly (K))LFQVAK_]”, the collision cross section [20] is reported as 562.29 ± 1.2 Å².

In the case of “SLKLNTAEDAK [_SLK(Trimethyl (K))LNTAEDAK_]”, the collision cross section (charge state: 2, modification: Trimethyl (K)) is reported as 378.59 ± 0.02 Å² and the collision cross section [12] is reported as 461.43 ± 2.4 Å².

Sequence “VSPASSVDSNIPSSQGYKK [_VSPASSVDSNIPSSQGYK(Crotonyl)K_]” has a collision cross section [18] of 464.78 ± 0.82 Å² and a collision cross section [19] of 560.75 ± 1.6 Å².

In the case of “TFGKAAGPSLSHTSGGTQSK [_TFGK(Butyryl)AAGPSLSHTSGGTQSK_]”, the collision cross section [21] is reported as 496.92 ± 1.5 Å² and the collision cross section [22] is reported as 514.77 ± 3.5 Å².

For “SLGEPAAGEGSAKR [_SLGEPAAGEGSAK(GlyGly (K))R_]”, the collision cross section [23] was 411.44 ± 1.9 Å² and the collision cross section [20] was 486.35 ± 2.8 Å².

For GAEKTEVAEPR [_GAEK(Succinyl)TEVAEPR_], the collision cross section [24] was 372.49 ± 0.4 Å².

ALLQAKASGK [_ALLQAK(Dimethyl (K))ASGK_] showed a collision cross section [6] of 351.53 ± 0.51 Å².

For ISALQGKLSK [_ISALQGK(Butyryl)LSK_], the collision cross section [21] was 358.56 ± 1.2 Å².

For “SKHLQEQLNELK [_SK(Methyl (K))HLQEQLNELK_]”, the collision cross section [10] was 411.32 ± 1.9 Å² and the collision cross section [11] was 492.52 ± 1.8 Å².

In the case of “VLDSGAPIKIPVGPETLGR [_VLDSGAPIK(Succinyl)IPVGPETLGR_]”, the collision cross section [24] is reported as 470.32 ± 0.95 Å².

In the case of “VSPASSVDSNIPSSQGYKK [_VSPASSVDSNIPSSQGYK(Trimethyl (K))K_]”, the collision cross section [12] is reported as 548.09 ± 0.9 Å².

LDYSDFQIVK [_LDY(Phospho (Y))SDFQIVK_] gave a collision cross section [25] of 374.72 ± 0.79 Å².

For “SGGGYGGDRGGGYGGDR [_SGGGYGGDR(Methyl (R))GGGYGGDR_]”, the collision cross section (charge state: 3, modification: Methyl (R)) was 461.83 ± 3 Å².

“SSFAYKDQNENR [_SSFAYK(Gluratylation)DQNENR_]” gave a collision cross section [1] of 404.81 ± 0.5 Å² and a collision cross section [2] of 472.81 ± 1.2 Å².

In the case of “PGGEGPQCEKTTDVK [_PGGEGPQCEK(Formyl)TTDVK_]”, the collision cross section (charge state: 2, modification: Formyl) is reported as 413.32 Å².

“VFIGNLNTLVVKKK [_VFIGNLNTLVVK(Methyl (K))KK_]” gave a collision cross section [11] of 483.02 ± 5.9 Å².

For “ALLQAKASGK [_ALLQAK(Gluratylation)ASGK_]”, the collision cross section [1] was 353.63 ± 0.71 Å².

“TPNLYIYSKK [_TPNLYIYSK(Gluratylation)K_]” gave a collision cross section [1] of 398.57 ± 0.6 Å² and a collision cross section [2] of 451.21 ± 1.7 Å².

With “LNAIYQNNLTK [_LNAIY(Phospho (Y))QNNLTK_]” the collision cross section [25] was 390.25 ± 0.67 Å².

“LGVATVAKGVCGACK [_LGVATVAK(Butyryl)GVCGACK_]” showed a collision cross section [21] of 418.39 ± 0.77 Å² and a collision cross section [22] of 491.64 Å².

“KSQAGASELGPFSDPR [_KSQAGASELGPFS(HexNAc (ST))DPR_]” gave a collision cross section [26] of 503.83 ± 1.1 Å².

For “DASTLQSQKAEGTGDAK [_DASTLQSQK(GlyGly (K))AEGTGDAK_]”, the collision cross section [23] was 451.81 ± 1.4 Å² and the collision cross section [20] was 505.67 ± 1.1 Å².

Sequence “DESFLGKLGGTLAR [_DESFLGK(Trimethyl (K))LGGTLAR_]” has a collision cross section [12] of 477.03 ± 0.84 Å².

Work on PSVSTKLISK [_PSVSTK(Biotin)LISK_] yielded a collision cross section [8] of 375.49 Å².

Work on “DDSFLGKLGGTLAR [_DDSFLGK(Succinyl)LGGTLAR_]” yielded a collision cross section [24] of 412.99 ± 0.37 Å² and a collision cross section (charge state: 3, modification: Succinyl) of 489.32 ± 3.3 Å².

With SKHLQEQLNELK [_SK(Malonyl)HLQEQLNELK_] the collision cross section [15] was 415.64 Å² and the collision cross section [16] was 480.76 ± 0.91 Å².

VETTVTSLKTK [_VETTVTSLK(Malonyl)TK_] showed a collision cross section [15] of 384.89 ± 0.011 Å².

Work on “VGIDTPDIDIHGPEGKLK [_VGIDTPDIDIHGPEGK(Butyryl)LK_]” yielded a collision cross section [21] of 496.6 ± 1 Å² and a collision cross section [22] of 542.04 ± 1.1 Å².

“SKLLFSNTAAQK [_SK(Gluratylation)LLFSNTAAQK_]” showed a collision cross section [1] of 403.03 ± 0.5 Å².

Work on IHPEGPPLK [_IHP(Hydroxyproline)EGPPLK_] yielded a collision cross section [13] of 331.8 ± 0.88 Å² and a collision cross section [27] of 438.36 ± 0.43 Å².

In the case of ITGKNQVTATK [_ITGK(Crotonyl)NQVTATK_], the collision cross section [18] is reported as 369.54 ± 0.26 Å².

Sequence “IPAASAAAMNLASAR [_IPAASAAAMNLAS(HexNAc (ST))AR_]” has a collision cross section [14] of 422.38 ± 0.62 Å².

With TSYAQHQQVR [_TSY(Nitro (Y))AQHQQVR_] the collision cross section [5] was 366.98 ± 0.94 Å² and the collision cross section [28] was 458.71 ± 1.2 Å².

For “GADFLVTEVENGGSLGSKK [_GADFLVTEVENGGSLGSK(hydroxyisobutyryl)K_]”, the collision cross section [3] was 478.5 ± 1.3 Å² and the collision cross section [4] was 553.89 Å².

For “IVFSGNLFQHQEDSKK [_IVFSGNLFQHQEDSK(Dimethyl (K))K_]”, the collision cross section [7] was 532.16 ± 0.77 Å².

In the case of AEGYEVAHGGR [_AEGY(Nitro (Y))EVAHGGR_], the collision cross section [5] is reported as 365.03 ± 0.17 Å² and the collision cross section [28] is reported as 442.95 ± 1.1 Å².

DHLSDKESK [_DHLSDK(Dimethyl (K))ESK_] gave a collision cross section [6] of 344.63 ± 1.5 Å² and a collision cross section [7] of 408.73 ± 0.56 Å².

Sequence SYHLQIVTK [_SY(Nitro (Y))HLQIVTK_] has a collision cross section [5] of 345.14 ± 0.74 Å² and a collision cross section [28] of 449.3 ± 1.2 Å².

For “GGNFGGRGGYGGGGGGSR [_GGNFGGR(Citrullination (R))GGYGGGGGGSR_]”, the collision cross section [17] was 392.17 ± 1 Å² and the collision cross section (charge state: 3, modification: Citrullination (R)) was 481.82 Å².

Sequence “TAGSSGVTAGRPRPTAR [_TAGSSGVTAGRPRPT(HexNAc (ST))AR_]” has a collision cross section [26] of 527.29 ± 0.18 Å².

In the case of “GLPGEPGPRGLLGPK [_GLPGEP(Hydroxyproline)GPRGLLGPK_]”, the collision cross section [13] is reported as 409.23 ± 0.28 Å².

For “GSHGQTPSPGALPLGR [_GS(HexNAc (ST))HGQTPSPGALPLGR_]”, the collision cross section [26] was 494.18 ± 4.8 Å².

“ALASIDSKLNQAK [_ALASIDSK(GlyGly (K))LNQAK_]” showed a collision cross section [23] of 417.48 ± 0.98 Å² and a collision cross section [20] of 469.2 ± 1.3 Å².

For “GSIGFPGFPGANGEKGGR [_GSIGFP(Hydroxyproline)GFPGANGEKGGR_]”, the collision cross section [27] was 489.41 ± 4 Å².
